Source: doi:10.1101/2020.06.04.133876 (bioRxiv, 2020)
Positions count from the first letter of the chain named. Names and notes keep the numbering of the source.

B1: Cdc42 (residues 1-177), recombinant (domain or fragment)
chain: not shown
B2: GST-OtDUB C-terminal truncation (275-913) (domain or fragment)
chain: SAEVSSKEELYVPKINQVEESLEAQLKYINEHIASQLMQIVKNSNGEIDCNSSNFQEEVSSLLNSRSKETTSLATIEQNFNEIIQQLRKEKVNEERVSAIELQLKANRAVLEAKLSNTEDVKSLVNQKIKEETLQAIPFFGNAAERANFKKHLAHFVKLPDNSYSLLKQKEKRHPFCNIIGANAVKFFSPQSNAVYLNTSAYNQITSGNLKAFEAAVTTDINNLMLKEAAVTIDAVSPNKEAVESGKDLSKTDELAELKEVKSNLETELKILKERLVKKVTSNLETELKFFKGRLVQELMQIVKNENGRIDHTSKNWQESASVLLNSQEKGAVSLAEVERAVSKMTQKLRDQKVSEEEVVNIESKLKFERASLEAKLFDDNEIKELINKRIKEDALRAIPFLGSDSESFMEKISPFVKLPDDSYSLLKANDKHHPFQNILYSNALKFFADSSDIGYLNDDSLKNLTPENLNAFEQAVAADIDKLMSRDVTLNVSDLKSYVANSPNPDLIADYLALEWQIHTPGLKGLYDDLQASHQLQLNELENKHAKQLLSDLANLSKLPSMRGILPEFKDEFYNEIDKKPEERSVEYKNFINKCSELPDAMLQPAKCSAQALLEFNKYERDLNSFKQGVFCAIDNYK
notes: OtDUB (ORF OTT_1962), Orientia tsutsugamushi Ikeda isolate; pGEX6P1 construct; source: E. coli Rosetta DE3, purified (glutathione resin)
B3: OtDUBGEF (residues 548-759), His-tagged construct (domain or fragment)
chain: ERLVKKVTSNLETELKFFKGRLVQELMQIVKNENGRIDHTSKNWQESASVLLNSQEKGAVSLAEVERAVSKMTQKLRDQKVSEEEVVNIESKLKFERASLEAKLFDDNEIKELINKRIKEDALRAIPFLGSDSESFMEKISPFVKLPDDSYSLLKANDKHHPFQNILYSNALKFFADSSDIGYLNDDSLKNLTPENLNAFEQAVAADIDKLM
notes: source: E. coli BL21(DE3), purified (Ni-NTA, Superdex 75)
B4: GST-OtDUBGEF E561A (domain or fragment)
chain: B3 chain with E14A
notes: OtDUB (ORF OTT_1962), Orientia tsutsugamushi Ikeda isolate; also called switch I (E561A) mutant; source: E. coli Rosetta DE3, purified (glutathione resin)
B5: GST-OtDUBGEF N590A/E593A (domain or fragment)
chain: B3 chain with N43A, E46A
notes: OtDUB (ORF OTT_1962), Orientia tsutsugamushi Ikeda isolate; also called switch II (N590A/E593A) mutant; source: E. coli Rosetta DE3, purified (glutathione resin)

Assays:
[1] = molecular target: B3; test: ITC; conditions: both partners purified
[2] = molecular target: T1, Rac1 (residues 1-177), recombinant (human, UniProt P63000 1-177); test: pull-down; GST-tagged OtDUB fragments (20 μM) as bait and Rac1 (60 µM) as prey, 50 mM Tris-HCl pH 7.5, 150 mM NaCl, 0.1 mM TCEP, glutathione resin 1 h at 4°C; Coomassie; conditions: both partners purified
[3] = molecular target: T1, Rac1 (residues 1-177), recombinant; test: ITC; conditions: both partners purified
[4] = molecular target: T1, Rac1 (residues 1-177), recombinant; test: cell-based or functional assay

Row | Binder | binding result [2] | also measured
1 | B1 | – | Kd [1]: ~16 µM
2 | B2 | binds | –
3 | B3 | – | Kd [3]: ~5 µM; kcat/KM of BODIPY-GDP dissociation from Rac1 with increasing amounts of OtDUBGEF [4]: 260000 M⁻¹ s⁻¹
4 | B4 | binds | –
5 | B5 | binds | –
